Results: patent US20150273076A1, “SP1 POLYPEPTIDES, MODIFIED SP1 POLYPEPTIDES AND USES THEREOF” (Fulcrum SP Ltd., priority 2006, published 2015)

Test: SP1 stability following exposure to SDS and heating
Assay type: physicochemical
Experimental: The stability of the SP1 complex in the presence of SDS was examined by incubating purified SP1 with SDS at different molar ratios and at different temperatures. Dissociation of the SP1 complex to monomers required a molar ratio greater than 600:1 (SDS:SP1-monomer) accompanied by boiling before loading onto the gel.

wild type: stress related SP1 protein from aspen (Populus tremula), recombinant, SEQ ID NO:1
disassociation of the complex (1734-fold SDS (1%), temperatures of 80° C. or lower): did not cause significant disassociation of the complex
molar ratio (SDS:SP1-monomer) required for dissociation of the complex to monomers (accompanied by boiling before loading onto the gel): greater than 600
state of SP1 on SDS-PAGE (without boiling, SDS ratio of 3467 to 1): remained as a complex
